± gives the uncertainty stated by the source.
B1: Cullin-9, residues 2234 to 2275; numbered along this chain, Q8IWT3 (parent)
chain: KRCPSCQAPIEKNEGCLHMTCAKCNHGFCWRCLKSWKPNHKD

Variants of: B1
Experiment: abundance fitness (aPCA) (normalised: wild type 0, dead -1); higher = more abundant; growth selection in yeast, the domain comes from the species named
Conditions: Homo sapiens

Variant | abundance fitness
KRCPSCQAPIEKNEGCLHMTCRKCNHGFCWRCLKSWKPNHKD [A22R] | -0.242 ± 0.1
KRCPSCQAPIEKNEGCLHMTCVKCNHGFCWRCLKSWKPNHKD [A22V] | -0.306 ± 0.12
KRCPSCQAPIEKNEGCLHMTCDKCNHGFCWRCLKSWKPNHKD [A22D] | 0.229 ± 0.19
KRCPSCQAPIEKNEGCLHMTCWKCNHGFCWRCLKSWKPNHKD [A22W] | -0.096 ± 0.11
KRCPSCQAPIEKNEGCLHMTCGKCNHGFCWRCLKSWKPNHKD [A22G] | -0.254 ± 0.11
KRCPSCQAPIEKNEGCLHMTCMKCNHGFCWRCLKSWKPNHKD [A22M] | 0.082 ± 0.16
KRCPSCQAPIEKNEGCLHMTCKKCNHGFCWRCLKSWKPNHKD [A22K] | -0.333 ± 0.17
KRCPSCQAPIEKNEGCLHMTCSKCNHGFCWRCLKSWKPNHKD [A22S] | -0.202 ± 0.12
KRCPSCQAPIEKNEGCLHMTCLKCNHGFCWRCLKSWKPNHKD [A22L] | -0.282 ± 0.13
KRCPSCQAPIEKNEGCLHMTCIKCNHGFCWRCLKSWKPNHKD [A22I] | -0.025 ± 0.14
KRCPSCQAPIEKNEGCLHMTCYKCNHGFCWRCLKSWKPNHKD [A22Y] | 0.082 ± 0.21
KRCPSCQAPIEKNEGCLHMTCPKCNHGFCWRCLKSWKPNHKD [A22P] | 0.149 ± 0.13
KRCPSCQAPIEKNEGCLHMTCEKCNHGFCWRCLKSWKPNHKD [A22E] | 0.029 ± 0.11
KRCPSCQAPIEKNEGCLHMTCATCNHGFCWRCLKSWKPNHKD [K23T] | -0.115 ± 0.1
KRCPSCQAPIEKNEGCLHMTCAICNHGFCWRCLKSWKPNHKD [K23I] | -0.437 ± 0.14
KRCPSCQAPIEKNEGCLHMTCAGCNHGFCWRCLKSWKPNHKD [K23G] | -0.262 ± 0.08
KRCPSCQAPIEKNEGCLHMTCALCNHGFCWRCLKSWKPNHKD [K23L] | -0.325 ± 0.092
KRCPSCQAPIEKNEGCLHMTCAACNHGFCWRCLKSWKPNHKD [K23A] | -0.102 ± 0.085
KRCPSCQAPIEKNEGCLHMTCAVCNHGFCWRCLKSWKPNHKD [K23V] | -0.293 ± 0.091
KRCPSCQAPIEKNEGCLHMTCAQCNHGFCWRCLKSWKPNHKD [K23Q] | -0.454 ± 0.14

Variant | abundance fitness
KRCPSCQAPIEKNEGCLHMTCADCNHGFCWRCLKSWKPNHKD [K23D] | -0.239 ± 0.32
KRCPSCQAPIEKNEGCLHMTCASCNHGFCWRCLKSWKPNHKD [K23S] | -0.174 ± 0.1
KRCPSCQAPIEKNEGCLHMTCAHCNHGFCWRCLKSWKPNHKD [K23H] | -0.223 ± 0.19
KRCPSCQAPIEKNEGCLHMTCAPCNHGFCWRCLKSWKPNHKD [K23P] | -0.695 ± 0.12
KRCPSCQAPIEKNEGCLHMTCAECNHGFCWRCLKSWKPNHKD [K23E] | -0.209 ± 0.097
KRCPSCQAPIEKNEGCLHMTCAMCNHGFCWRCLKSWKPNHKD [K23M] | -0.323 ± 0.14
KRCPSCQAPIEKNEGCLHMTCANCNHGFCWRCLKSWKPNHKD [K23N] | -0.184 ± 0.23
KRCPSCQAPIEKNEGCLHMTCAFCNHGFCWRCLKSWKPNHKD [K23F] | 0.02 ± 0.22
KRCPSCQAPIEKNEGCLHMTCARCNHGFCWRCLKSWKPNHKD [K23R] | -0.015 ± 0.077
KRCPSCQAPIEKNEGCLHMTCAKFNHGFCWRCLKSWKPNHKD [C24F] | -0.534 ± 0.21
KRCPSCQAPIEKNEGCLHMTCAKTNHGFCWRCLKSWKPNHKD [C24T] | -0.735 ± 0.19
KRCPSCQAPIEKNEGCLHMTCAKWNHGFCWRCLKSWKPNHKD [C24W] | -0.784 ± 0.11
KRCPSCQAPIEKNEGCLHMTCAKMNHGFCWRCLKSWKPNHKD [C24M] | -0.574 ± 0.2
KRCPSCQAPIEKNEGCLHMTCAKRNHGFCWRCLKSWKPNHKD [C24R] | -0.594 ± 0.086
KRCPSCQAPIEKNEGCLHMTCAKHNHGFCWRCLKSWKPNHKD [C24H] | -0.382 ± 0.33
KRCPSCQAPIEKNEGCLHMTCAKKNHGFCWRCLKSWKPNHKD [C24K] | -0.379 ± 0.13
KRCPSCQAPIEKNEGCLHMTCAKDNHGFCWRCLKSWKPNHKD [C24D] | -0.045 ± 0.14
KRCPSCQAPIEKNEGCLHMTCAKANHGFCWRCLKSWKPNHKD [C24A] | -0.45 ± 0.094
KRCPSCQAPIEKNEGCLHMTCAKLNHGFCWRCLKSWKPNHKD [C24L] | -0.454 ± 0.093
KRCPSCQAPIEKNEGCLHMTCAKGNHGFCWRCLKSWKPNHKD [C24G] | -0.268 ± 0.074

Variant | abundance fitness
KRCPSCQAPIEKNEGCLHMTCAKPNHGFCWRCLKSWKPNHKD [C24P] | -0.249 ± 0.1
KRCPSCQAPIEKNEGCLHMTCAKSNHGFCWRCLKSWKPNHKD [C24S] | -0.384 ± 0.12
KRCPSCQAPIEKNEGCLHMTCAKENHGFCWRCLKSWKPNHKD [C24E] | -0.129 ± 0.088
KRCPSCQAPIEKNEGCLHMTCAKCCHGFCWRCLKSWKPNHKD [N25C] | 0.126 ± 0.12
KRCPSCQAPIEKNEGCLHMTCAKCAHGFCWRCLKSWKPNHKD [N25A] | -0.127 ± 0.091
KRCPSCQAPIEKNEGCLHMTCAKCEHGFCWRCLKSWKPNHKD [N25E] | -0.045 ± 0.087
KRCPSCQAPIEKNEGCLHMTCAKCDHGFCWRCLKSWKPNHKD [N25D] | 0.087 ± 0.12
KRCPSCQAPIEKNEGCLHMTCAKCFHGFCWRCLKSWKPNHKD [N25F] | -0.242 ± 0.16
KRCPSCQAPIEKNEGCLEMTCAKCNHGFCWRCLKSWKPNHKD [H18E] | 0.019 ± 0.094
KRCPSCQAPIEKNEGCLCMTCAKCNHGFCWRCLKSWKPNHKD [H18C] | -0.425 ± 0.14
KRCPSCQAPIEKNEGCLVMTCAKCNHGFCWRCLKSWKPNHKD [H18V] | -0.393 ± 0.099
KRCPSCQAPIEKNEGCLDMTCAKCNHGFCWRCLKSWKPNHKD [H18D] | -0.274 ± 0.16
KRCPSCQAPIEKNEGCLFMTCAKCNHGFCWRCLKSWKPNHKD [H18F] | -0.058 ± 0.29
KRCPSCQAPIEKNEGCLTMTCAKCNHGFCWRCLKSWKPNHKD [H18T] | -0.438 ± 0.12
KRCPSCQAPIEKNEGCLIMTCAKCNHGFCWRCLKSWKPNHKD [H18I] | -0.155 ± 0.19
KRCPSCQAPIEKNEGCLMMTCAKCNHGFCWRCLKSWKPNHKD [H18M] | 0.154 ± 0.1
KRCPSCQAPIEKNEGCLLMTCAKCNHGFCWRCLKSWKPNHKD [H18L] | -0.104 ± 0.09
KRCPSCQAPIEKNEGCLQMTCAKCNHGFCWRCLKSWKPNHKD [H18Q] | 0.106 ± 0.1
KRCPSCQAPIEKNEGCLPMTCAKCNHGFCWRCLKSWKPNHKD [H18P] | -0.427 ± 0.098
KRCPSCQAPIEKNEGCLRMTCAKCNHGFCWRCLKSWKPNHKD [H18R] | -0.016 ± 0.073

— the Human Domainome abundance scans (Beltran et al. 2025)
